The test deals with T1, monoubiquitin (SIGMA U6253) (UniProt P0CG48 1-76).
T1 construct: ubiquitin, the 76-residue cut product of a ubiquitin precursor; source: bought: SIGMA U6253
As to the kind of experiment: ITC; Microcal ITC200; 20 mM Tris-HCl (pH 7.5), 100 mM NaCl, 1 mM TCEP; SOUBA domain at 150 μM in the cell, 38 injections of monoubiquitin at 3 mM; single set of independent sites. The conditions noted are these: both partners purified.

Among the data in paper PMC3314968, “The UBAP1 Subunit of ESCRT-I Interacts with Ubiquitin via a SOUBA Domain” (Structure(London, England:1993), 2012) are Kd values, retold here.

As a reminder, the Kd is the equilibrium constant for the complex coming apart. The low end stands for higher affinity, the high end for lower affinity.

B1: human UBAP1 SOUBA domain (389-502), wild-type (domain or fragment, UniProt Q9NZ09 389-502, looked up)
chain: SPSERQCVETVVNMGYSYECVLRAMKKKGENIEQILDYLFAHGQLCEKGFDPLLVEEALEMHQCSEEKMMEFLQLMSKFKEMGFELKDIKEVLLLHNNDQDNALEDLMARAGAS
notes: UBAP1, human, residues 389-502 (SOUBA domain); The His6 tag is followed by a TEV protease cleavage site; whether it was cut is told in the Supplemental Experimental Procedures; Used unlabeled or 15N- (13C/15N-) labeled in NMR; also called UBAP1(389-502); UBAP1_389-502; source: recombinant, from the pOPTH(tev) expression vector, purified (details in Supplemental Experimental Procedures)
Consider B1, for which the Kd was about 70 µM.
